{"source": "patent US20230051715A1", "about": "(MABWELL THERAPEUTICS, published 2023)", "key": {"[1]": {"target": "T1, active human C1s (CompTech A104 C1s Enzyme) (human, UniProt P09871 16-688)", "T1 construct": "also called human active C1s; active C1s protein", "T1 sequence (looked up)": "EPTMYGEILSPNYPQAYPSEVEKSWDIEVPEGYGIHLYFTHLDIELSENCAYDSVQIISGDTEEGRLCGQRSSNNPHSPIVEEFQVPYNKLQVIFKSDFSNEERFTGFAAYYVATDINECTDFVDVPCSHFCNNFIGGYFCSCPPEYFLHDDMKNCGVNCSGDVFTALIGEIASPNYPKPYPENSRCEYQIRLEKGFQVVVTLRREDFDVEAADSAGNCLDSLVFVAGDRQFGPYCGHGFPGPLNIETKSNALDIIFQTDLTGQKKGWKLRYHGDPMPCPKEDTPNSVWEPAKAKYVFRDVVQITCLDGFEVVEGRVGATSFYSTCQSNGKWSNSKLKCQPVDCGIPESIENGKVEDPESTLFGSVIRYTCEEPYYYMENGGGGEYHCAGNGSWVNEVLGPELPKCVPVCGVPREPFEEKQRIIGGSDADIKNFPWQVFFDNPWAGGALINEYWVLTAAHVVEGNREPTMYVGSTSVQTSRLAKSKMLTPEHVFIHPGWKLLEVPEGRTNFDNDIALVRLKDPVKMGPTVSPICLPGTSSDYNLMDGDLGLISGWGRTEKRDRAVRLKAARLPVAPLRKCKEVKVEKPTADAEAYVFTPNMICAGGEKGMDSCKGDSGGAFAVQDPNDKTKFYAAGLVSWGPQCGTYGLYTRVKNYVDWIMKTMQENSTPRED", "experiment": "BLI (Octet RED96e), antibody on AHC biosensor; HuC1s Form: Active; R^2 0.9990", "experimental": "Bio-Layer Interferometry technology was used for anti-C1s antibody affinity measurement and binding kinetics determinations with OCTET® RED96e system (Sartorius AG). Pre-hydrated Anti-Human IgG Fc Capture (AHC) biosensors were first equilibrated in 1×KB (Kinetic Buffer, 1×PBS pH 7.4+0.02% Tween-20+0.1% BSA) for 120 sec for the first baseline, followed by loading with […] anti-C1s antibody (2-7, FIG. 3A; 2-8, FIG. 3B; hz2-7(H1L2), FIG. 3C; hz2-8(H1L2 G80A/T82A, FIG. 3D) onto AHC biosensors for 240 sec. Then, the second baseline signal was established for 120 sec before association with various concentrations of active human C1s (CompTech A104) for 240-360 sec. At last, analyte was dissociated in 1×KB for 360 sec. Anti-C1s antibodies 2-7 and 2-8 were also analyzed against human C1s proenzyme (CompTech A103) (data not shown). Data analysis was carried out using OCTET® Data Analysis HT Software (Sartorius AG). KD, kₒₙ, koff and R² values were calculated for each antibody and target combination, as summarized in FIG. 3E showing high affinity binding with KD values in the low nanomolar to picomolar range."}, "[2]": {"target": "T2, human C1s mutant M9 (K336G, D343Y & E351A) (human, UniProt P09871 16-688)", "T2 construct": "The entry is the mutant itself", "T2 sequence": "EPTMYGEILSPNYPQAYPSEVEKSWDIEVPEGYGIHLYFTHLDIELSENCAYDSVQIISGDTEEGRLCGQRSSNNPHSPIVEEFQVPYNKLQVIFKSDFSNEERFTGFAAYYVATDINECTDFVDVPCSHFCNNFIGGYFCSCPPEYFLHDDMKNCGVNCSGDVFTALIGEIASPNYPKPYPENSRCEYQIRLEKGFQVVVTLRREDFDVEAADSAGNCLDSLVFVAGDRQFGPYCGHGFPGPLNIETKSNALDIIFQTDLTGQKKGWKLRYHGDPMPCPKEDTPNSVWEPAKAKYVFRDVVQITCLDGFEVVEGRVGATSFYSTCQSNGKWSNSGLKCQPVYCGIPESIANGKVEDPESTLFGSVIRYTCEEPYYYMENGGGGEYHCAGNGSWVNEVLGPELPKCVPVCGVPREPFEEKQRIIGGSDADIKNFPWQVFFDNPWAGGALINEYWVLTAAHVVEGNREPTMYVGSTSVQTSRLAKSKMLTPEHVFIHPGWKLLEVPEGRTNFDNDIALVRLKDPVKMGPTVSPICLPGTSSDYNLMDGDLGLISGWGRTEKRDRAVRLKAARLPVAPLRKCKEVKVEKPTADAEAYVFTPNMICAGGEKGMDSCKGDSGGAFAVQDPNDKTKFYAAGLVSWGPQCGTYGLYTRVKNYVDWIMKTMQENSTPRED", "experiment": "ELISA, plate coated with human C1s mutant M9: K336G, D343Y, E351A, OD450nm; the curve reaches only OD450 about 0.7 at 1000 ng/ml", "experimental": "(§1) ELISA was carried out by first coating 96-well plates with 200 ng/well of full-length or truncated C1s proteins overnight. The next morning, plates were blocked with SuperBlock T20 blocking buffer (Thermo Scientific 37536) for 1 h with gentle shaking. Then, various concentrations of anti-C1s antibodies diluted in SuperBlock T20 blocking buffer were added to the plates and incubated for 1 h with gentle shaking. Mouse IgG (Sigma-Aldrich 15381) and human IgG1 (BioXCell BP0297) were used as negative controls. The plates were washed before incubating with HRP conjugated secondary antibodies diluted in SuperBlock T20 blocking buffer (goat anti-mouse IgG (H+L) cross-adsorbed secondary antibody HRP (Invitrogen G-21040) or goat anti-human IgG antibody, HRP conjugate (Millipore AP309P)) for 1 h with gentle shaking. At last, the plates were washed and color developed with ELISA liquid HRP substrate (Sigma-Aldrich), followed by stopping the reaction with addition of 1M H₂SO₄ in the same volume as the ELISA liquid substrate. Bound antibody was measured by absorbance at OD₄₅₀ₙₘ.\n(§2) Binding of anti-C1s antibodies to mutants M1-M20 of human C1s was measured by ELISA as described in Example 4, and results are shown in FIGS. 6B-6U. […]"}, "[3]": {"target": "T2, human C1s mutant M9 (K336G, D343Y & …)", "experiment": "ELISA, plate coated with human C1s mutant M9: K336G, D343Y, E351A, OD450nm", "experimental": "as §1, §2"}}}
{"binder": "Anti-C1s antibody 2-8 (antibody, V domains shown, the HC/LC entries may hold it too; also called clone 2-8) VH: EVQLQQSGAELVRPGALVKLSCKASGFNIKEYYMHWVKQRPEQGLEWIGWIDPENGDTIYDPKFQGKASITADTSSNTAYLQLSSLTSEDTAVYYCARSRLFFAYWGQGTLVTVSA VL: DIVMTQSHKFMSTSVGDRVSFTCKASQDVRTAVDWYQQKPGQSPKLLIYSASYRYTGVPDRFTGTGSGTDFTFTISSVQAEDLAVYFCQQQYTTPYTFGGGTKLEIKT", "values": [{"measurement": "Kd", "setting": "[1]", "value": 0.49, "unit": "nM"}, {"measurement": "koff", "setting": "[1]", "value": 0.00012, "unit": "s⁻¹"}, {"measurement": "kon", "setting": "[1]", "value": 250000, "unit": "M⁻¹ s⁻¹"}]}
{"binder": "Anti-C1s antibody hz2-7(H1L2) (antibody, V domains shown, Humanized, human IgG1 / kappa; also called hz2-7(1L2)) VH: EVQLLESGGGLVQPGGSLRLSCAASGFTFSNYFMNWVRQAPGKGLEWVSEIRLKFTNYATHYADSVKGRFTISRDDSKSTLYLQMNSLRAEDTAVYYCTRDYGSRNGYFDYWGQGTLVTVSS VL: DIVMTQTPLSLPVTPGEPASISCRSSKSLLHSNGNTFLYWFLQKPGQSPQLLIYRMSNLASGVPDRFSGSGSGTDFTLKISRVEAEDVGVYYCMQHLEYPYTFGGGTKLEIKR", "values": [{"measurement": "EC50", "setting": "[2]", "value": 0.013, "unit": "µg/mL"}]}
{"binder": "Anti-C1s antibody hz2-8 (H1L2 G80A/T82A) (antibody, V domains shown, Humanized variant with G80A and T82A in HC CDR2 (already in the entry), human IgG1 / kappa) VH: QVQLVQSGAEVKKPGASVKVSCKASGFNIKEYYMHWVRQAPEQGLEWMGWIDPENADAIYAQKFQGRVTITADTSTNTAYMELSSLRSEDTAVYYCARSRLFFAYWGQGTLVTVSS VL: DIQMTQSPKSLSASVGDRVTITCRASQDVRTALDWYQQKPGQSPKLLIYSASYRYSGVPSRFSGSGSGTDFTLTISSLQPEDFATYYCQQQYTTPYTFGQGTKLEIKR", "values": [{"measurement": "binding result", "setting": "[3]", "value": "no binding (tested: 1000 ng/ml (Log 3))"}]}
